Test results taken from article PMC5087801.
pKd: −log10 of the molar value.

Biological target: fluorescein-labeled HMGB1 (full-length) (rat) (UniProt P63159)
Assay: fluorescence polarisation

UniProt P63159, sequence (P63159 whole entry): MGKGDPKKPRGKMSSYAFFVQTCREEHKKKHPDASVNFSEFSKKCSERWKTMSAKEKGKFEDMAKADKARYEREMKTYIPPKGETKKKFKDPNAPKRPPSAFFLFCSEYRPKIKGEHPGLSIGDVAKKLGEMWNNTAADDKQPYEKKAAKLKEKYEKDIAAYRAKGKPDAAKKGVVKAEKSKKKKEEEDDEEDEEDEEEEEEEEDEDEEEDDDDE

- pKd: 5.54
Substance: Danio rerio TLR5-N14VLR (drTLR5) (receptor)
